What was measured:
[1] = target: catalytic domain of MMP-14 residues 110-300 (human, UniProt P50281 110-300); assay: enzyme inhibition assay
[2] = target: catalytic domain of MMP-3 (WT), activated (UniProt P08254 100-272); assay: enzyme inhibition assay
Chain of catalytic domain of MMP-3 (WT), activated (P08254 100-272): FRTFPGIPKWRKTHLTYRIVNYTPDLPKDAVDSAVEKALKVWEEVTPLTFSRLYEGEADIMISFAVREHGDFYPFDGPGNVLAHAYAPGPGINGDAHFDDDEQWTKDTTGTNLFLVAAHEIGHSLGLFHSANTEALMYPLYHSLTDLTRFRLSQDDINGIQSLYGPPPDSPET

Ki [1]: 0.53 ± 0.1 nM | Ki [2]: 5.9 ± 0.7 nM
B1: WT N-TIMP2 (N-terminal domain of tissue inhibitor of metalloproteinases-2), purified (domain or fragment, human, UniProt P16035 27-153, looked up)
chain: CSCSPVHPQQAFCNADVVIRAKAVSEKEVDSGNDIYGNPIKRIQYEIKQIKMFKGPEKDIEFIYTAPSSAVCGVSLDVGGKKEYLIAGKAEGDGKMHITLCDFIVPWDTLSTTQKKSLNHRYQMGCE

From publication doi:10.1101/2022.12.29.522231 (bioRxiv, 2022)
